These results are taken from publication PMC7522722, “Differential epigenetic regulation between the alternative promoters, PRDM1α and PRDM1β, of the tumour suppressor gene PRDM1 in human multiple myeloma cells”.

For data set [1], the target named is T1, TP53 (recombinant human, Calbiochem 506165) (human, UniProt P04637 1-393). Put plainly: EMSA; anti-TP53 antibody tested; EMSA as in a cited earlier paper; buffer, salt, pH and temperature not given; competitor 100x excess added 10 min before probe; antibody preincubation 1 h on ice. Conditions: protein: commercial; chain copies: 4; label: 32P (Klenow fill-in with [alpha-32P]-dCTP); 5' overhang 1 nt (G) on strand 2, filled in with labelled dC. A general note: In EMSA bound probe runs differently from free probe, usually more slowly.

Data set [2] has as its target T1, TP53 (recombinant human, Calbiochem …). Briefly: EMSA; shifted band faded by anti-TP53 antibody; EMSA as in a cited earlier paper; buffer, salt, pH and temperature not given; competitor 100x excess added 10 min before probe; antibody preincubation 1 h on ice. To be noted: protein: commercial; chain copies: 4; label: 32P (Klenow fill-in with [alpha-32P]-dCTP); 5' overhang 1 nt (G) on strand 1, filled in with labelled dC.

T1 sequence (P04637 whole entry): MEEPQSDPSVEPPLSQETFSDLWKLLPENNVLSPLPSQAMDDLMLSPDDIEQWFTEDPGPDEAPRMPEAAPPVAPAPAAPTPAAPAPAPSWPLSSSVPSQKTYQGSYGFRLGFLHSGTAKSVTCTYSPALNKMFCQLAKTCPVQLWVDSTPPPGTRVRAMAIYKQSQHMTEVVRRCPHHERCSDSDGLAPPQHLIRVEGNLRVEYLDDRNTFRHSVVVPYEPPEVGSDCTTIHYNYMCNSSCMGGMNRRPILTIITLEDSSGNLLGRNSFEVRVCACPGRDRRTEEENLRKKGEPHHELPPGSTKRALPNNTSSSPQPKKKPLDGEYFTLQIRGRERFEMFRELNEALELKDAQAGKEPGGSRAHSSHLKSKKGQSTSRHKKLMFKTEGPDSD

B1: TP53 probe (putative TP53 site, Panomics) (dsDNA)
DNA 1: TACAGAACATGTCTAAGCATGCTGGGG
DNA 2: GCCCCAGCATGCTTAGACATGTTCTGTA
On to B1, for which, in data set [1], the binding result is on record as “binds”.

B2: wtFOXA1 probe (dsDNA)
DNA 1: GGAAAGTGCAAGTCTGGACATGTTTATCAAGAGG
DNA 2: CCTCTTGATAAACATGTCCAGACTTGCACTTTC
B2: the binding result in data set [2] is reported as “binds”.
